Measurements as given in US20240101646A1 (published 2024).
Residue numbers refer to the chain shown, from its start.

B1: 53182-4 (antibody, V domains shown)
VH: QITLEESGPTLVTPTQTLTLTCSFSGFSLDTIGVAVAWIRQPPGKALEWLGTVFWDYDKRYSPPLSSRLTVIKDTSQQYVVLRLTDVGPGDTATYYCARLLIEHDAFDIWGQGAVVIVSS
VL: DVVVTQSPVSLPATPGEPASISCRASQSLLHRNGKHYLHWYLQRPGQSPQLLIYLGSNRASGVPDRFSGSGSGTVFSLKISRVEAEDVGIYYCMQALHFPYTFGQGTKLDIK
B2: 53181-1 (antibody, V domains shown)
VH: QVQLVQSGAEVKKPGASVKVSCKASGYTFTNYVLTWVRQAPGQGLEWMGWISAYNGSTNYAQNLQGRVTMTTDTSTSTAYMELRSLRSDDTAVYYCARDPASYYDFWSGYVDYYYYGMDVWGQGTTVTVSS
VL: ELVLTQSPGTLSLSPGERATLSCRASQSVSSSYLAWYQQKPGQAPRLLIYSASSRATGIPDRFSGSGSGTDFTLTISRLEPEDFAVYYCQQYGNSRLTFGPGTKVDIK
B3: 53181-2 (antibody, V domains shown)
VH: B2 VH with N31S, V33S, L34I, T35N, N63K, F106L
VL: B2 VL with L2I, S51G, Q90H, Q91H, N94S
B4: 53182-11 (antibody, V domains shown)
VH: EVQLVEFGGGLVQPGRSLRLSCATSGFTFEDFDMHWVRQAPGKGLEWVSGSTWNSGIIGYADSVKGRFTTSRDNAKNSLYMQMNNLREEDTALYYCAKDIGRYDHYNIFGRVGGAFDIWGQGTMVTVSS
VL: DIQMTQSPSSLSASVGDRVTISCQTSQDISVSLNWYQQKPGKPPKVLIYDASNLEAGAPSRFSGSGSGTDFTFTISSLQPEDIATYYCQHYDNLPRFGPGTKVDIK
B5: 5317-2 (antibody, V domains shown)
VH: QVQLVQSGAEVKKPGSSVKVSCKVSGGTFSSYTIIWVRQAPGQGLEWMGRVIPVVHITHYAQRFRGRVTISADKSTSTAYMELSSLRSEDTAVYYCARGLWFGDSETVWFDPWGQGTLVTVSS
VL: DIQMTQSPSSLSASVGDRVTITCRASQNITYYLNWYQQKPGKAPNLLIYTASSLQSGVPSRFIGSGSGTDFTLTISSLQPEDFATYCCQQSYSTPPTFGQGTKVEIR
B6: 53182-3 (antibody, V domains shown)
VH: EVHLVESGGGLVQPGGSLRLSCAASGFTVSSNYMSWVRQAPGKGLEWVSVIYSGGNTYYADSVKGRFTISRDNSKNTLYLQMNSLRAEDTAVYYCARDRRIIGYYFGMDVWGRGTTVTVSS
VL: QSALTQPASVSGSPGQSITISCTGTSSYVGSFDLVSWYQQHPGKAPKLMIYEVSKRPSGVSNRFSGSKSGNTASLTISGLQAEDEADYYCCPYADTWVFGGGTKLTVL
B7: 5317-6 (antibody, V domains shown)
VH: QLQLQESGPGLVKPSETLSLTCTVSGASISSSSYYWGWIRQPPGKGLEWIGTMYYRGSTDYNPSLKSRVTISVDTSKNQFSLRLSSVTAADTAVYYCARRVPGDYYCLDVWGKGTTVTVSS
VL: DIQLTQSPSSLSASVGDRVTVTCRASQSISDYLNWYQQKPGKAPKLLIYAASSLQTGVPPRFSGSGSGTDFTLTISSLQPEDFATYYCQQSFSARVPTFGGGTKVESK
B8: 5317-5 (antibody, V domains shown)
VH: QVQLVQSGAEVKKPGSSVKVSCKASGGTFSSYPITWVRQAPGQGFEWMGKIIPILGIADYAQSFQGRVTITADKSTTTAYMELSSLRSEDTAVYYCAREKGYSSSSSATYYLDFWGQGTLVTVSS
VL: QSVLTQPPSVSGAPGQRVTISCTGSNSNIGAGYDVHWYQQLPGTAPRLLIYRNSNRPSGVPDRFSGSKSGTAASLAISGLQAEDEADYYCQSYDSSLTALVFGGGTKLTVL
B9: antibody 5317-4 (antibody, V domains shown)
VH: QVQLRLWGAGLLKPSETLSLTCAVSGGSFIDYYWTWIRQPPGKGLEWIGEINHFGGSGYNPSLKSRVSISVDTSKNQFSLRLNSVTAADTAIYYCARKPLLHSSVNPGAFDIWGQGTMLTVSS
VL: EIVLTQSPGTLSLSPGERAALSCRASQSVAGTYLAWYQQKPGQAPRLLIYGASSRATGIPDRFSGSGSGTDFTLTISRLEPEDFAVYYCQQYATSPRTFGQGTQLEIR
B10: 5317-1 (antibody, V domains shown)
VH: QMQLVQSGPEVKKPGTSVKVSCKASGFTFSTSVVQWVRQPRGQRLEWIGGIVVGRGNTKYAQNFQERVTITRDMSTSTAYMELSNLRSEDTAVYYCAADPFADYWGQGTLVTVSS
VL: not shown
B11: 53182-9 (antibody, V domains shown)
VH: EVQLVESGGGLILPGGSLRLSCAASGVTVSSNYMNWVRQAPGKGLEWVSVIYSGGSTFYADSVKGRFTISRDNSKNTLYLQMNSLRAEDTAVYYCARGGWPSGDTFDIWGQGTMVTVSS
VL: DIQLTQSPSFLSASVGDRVTITCRASQGISSYLAWYQQKPGKAPKLLIYAASTLQSGVPSRFSGSGSGTEFTLTISSLQPEDFATYYCQQLNSYPEITFGPGTKVDIK
B12: 53182-1 (antibody, V domains shown)
VH: B11 VH with L13Q, A23T, V27I, S31T, N35T, V50I, F58Y, E88D, A96T, Q111L
VL: B11 VL with A50G
B13: 53182-8 (antibody, V domains shown)
VH: QLQLQESGPGLVKPSETLSLTCTVSGGSISSSSYYWGWIRQPPGKGLEWIGTIYYSGSTYYNPSLKSRVTISVDTSKTQFSLKLSSVTAADTAVYYCARDRRGGGWTASFDFWGQGTLVTVSS
VL: not shown
B14: 53182-6 (antibody, V domains shown)
VH: EVQLVESGGGLVQPGGSLRLSCAASGFTVSDNYMSWVRQAPGKGLQWVSVIYSGGNTYYADFVKGRFNITRDDSKNMLYLQMNSLRREDTAVYYCVRDRRIVGYYFGLDVWGQGTTVTVFS
VL: QSALTQPASVSGSPGQSITISCTGTSSDVRNYNLVSWYQQHPGKAPKLMIFEDSKRPSGVSNRFSGSKSGNTASLTIAGLQPEDEADYYCCSYATTWVFGGGTKVTVL
B15: 5317-3 (antibody, V domains shown)
VH: EVQLVESGGGLVQPGGSLRLSCSASGFTFSSYPMYWVRQAPGIGLEYVSGITDNGGSTYYGDSVKGRFTISRDNSKNTLNLQMNNLRTEDTAVYYCVKGKIQLWLGADYWGQGTLVTVSS
VL: DIQMTQSPSSLSASVGDRVTITCRANQTISSYLNWYQQKPGKAPKVLIFAASSLEGGVPSRFSGSGSGTDFTLTISSLQPEDFATYSCQQSYNTPWTFGQGTKVEIK
B16: 5317-7 (antibody, V domains shown)
VH: EVQLVGSGGGLVQPGGSLRLSCAASGFTFSTYWMSWVRQAPGKGLEWVADIKQDGSEKYYVDSVKGRFTISRDNAKNSLYLQMNSLRVEDTALYYCARGGLWGTFDYWGQGTLVTVSS
VL: EIVLTQSPGTLSLSPGERASLSCRASQSVSSSYLAWYQQKPGQAPRLLIYGASSRATGIPDRFSGSGSGTDFTLTISRLEPEDFAVYWCQQFAYSLYTFGQGTKLEIK

These binders were tested against SARS-CoV-2 NTD (SARS-CoV-2, UniProt P0DTC2 14-305).
B1 showed a Kd of 2.28 nM. B2 was tested, and the Kd was 1.17 nM. In the case of B3, the Kd is reported as 31.3 nM.

These binders were tested against SARS-CoV-2 RBD (SARS-CoV-2, UniProt P0DTC2 319-541).
B4 gave a Kd of 3.18 nM. Binder B5 has a Kd of 1.95 nM. B6 was tested, and the Kd was 8.32 nM. Work on B7 yielded a Kd of 1.66 nM. B8 gave a Kd of 0.0826 nM. In the case of B9, the Kd is reported as 1.78 nM. Work on B10 yielded a Kd of 0.0434 nM. For B11, the Kd was 0.0475 nM. B12 showed a Kd of 2.81 nM. For B13, the Kd was 16.5 nM. B14 was tested, and the Kd was 0.935 nM. B15 was tested, and the Kd was 1.92 nM. For B16, the Kd was 10.5 nM.
